Data published in article PMC13423800, “De novo design of potent CRISPR–Cas13 inhibitors” (Nature Chemical Biology, 2024).

B1: AIcrVIA2 (designed binder)
chain: MNEKKEKARKEMKEIAEKAIKEIKKDPEKALEIAVKAVEEIGEIANESGDYKSGEENAWKVAEEYAKVTGDDDTAYDLMLAGDMIIDGKDAEEGYEILKEL
B2: AIcrVIA3 (designed binder)
chain: MAPKKYVVTVTIPVTDADLTVFLVVDIIVYAEKLGGTVTITAVKSENDSYSVTLEDLDKAAEELEKVGGSIVLTVTFDNKEKAEKVAEFAYLKAEEYNLKVDVEVKEEL
B3: FP crRNA / 5'-FAM aRNA (mixed)
RNA: UAGACCACCCCAAAAAUGAAGGGGACUAAAACUUUCUUUCUUUCCUUUUUCUGCCG
?: CCGGCAGAAAAAGGAAAGAAAGAAACC
modifications: first C of the aRNA is deoxyribose (C*)

How the values were obtained:
[1] = target: T1, Leptotrichia buccalis (Lbu) CRISPR–Cas13a (Leptotrichia buccalis, UniProt C7NBY4 1-1159); assay: cell-based or functional assay
T1 sequence: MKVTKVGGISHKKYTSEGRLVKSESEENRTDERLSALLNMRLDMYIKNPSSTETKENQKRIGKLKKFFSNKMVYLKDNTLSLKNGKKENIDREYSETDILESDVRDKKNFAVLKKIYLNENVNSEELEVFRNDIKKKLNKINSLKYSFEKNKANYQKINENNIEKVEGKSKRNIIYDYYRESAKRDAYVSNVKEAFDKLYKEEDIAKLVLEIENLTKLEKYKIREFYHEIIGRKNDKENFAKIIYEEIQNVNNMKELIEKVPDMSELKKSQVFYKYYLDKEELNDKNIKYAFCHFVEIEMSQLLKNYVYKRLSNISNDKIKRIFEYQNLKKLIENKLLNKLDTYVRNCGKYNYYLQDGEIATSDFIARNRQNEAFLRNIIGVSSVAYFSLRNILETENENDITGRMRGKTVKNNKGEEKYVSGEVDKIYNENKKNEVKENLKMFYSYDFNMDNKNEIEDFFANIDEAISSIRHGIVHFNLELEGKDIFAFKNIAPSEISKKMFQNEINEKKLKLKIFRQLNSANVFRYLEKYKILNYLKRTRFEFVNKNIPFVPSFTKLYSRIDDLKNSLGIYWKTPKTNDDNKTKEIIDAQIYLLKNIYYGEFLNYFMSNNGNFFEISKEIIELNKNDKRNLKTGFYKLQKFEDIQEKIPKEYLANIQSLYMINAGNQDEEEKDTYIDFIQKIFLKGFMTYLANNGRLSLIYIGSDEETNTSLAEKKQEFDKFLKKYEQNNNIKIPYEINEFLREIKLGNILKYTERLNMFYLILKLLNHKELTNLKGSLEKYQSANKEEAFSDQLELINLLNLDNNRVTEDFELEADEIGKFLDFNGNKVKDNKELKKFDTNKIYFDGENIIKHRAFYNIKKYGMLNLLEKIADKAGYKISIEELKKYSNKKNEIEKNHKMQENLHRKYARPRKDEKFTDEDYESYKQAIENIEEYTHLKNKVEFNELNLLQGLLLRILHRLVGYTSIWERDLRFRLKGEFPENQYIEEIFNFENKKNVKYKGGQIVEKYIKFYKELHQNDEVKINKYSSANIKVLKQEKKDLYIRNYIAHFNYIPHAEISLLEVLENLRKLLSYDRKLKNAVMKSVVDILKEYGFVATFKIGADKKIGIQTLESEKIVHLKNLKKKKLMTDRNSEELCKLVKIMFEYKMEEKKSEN

[2] = target: T2, LbuCas13a (Leptotrichia buccalis, UniProt C7NBY4); assay: fluorescence polarization; no AIcr (control); 40 nM aRNA, RNP titrated; FP: 1x Cas13a cleavage buffer (composition not in the material), RNP twofold dilutions, 40 nM FAM-aRNA, 2 uM AIcrVIA, 2 h at 37 C; settings: protein: recombinant; tags: 6xHis-MBP, removed with TEV (SNA left at the N-terminus); label: 5'-6-FAM on aRNA; guide:target 24 bp; guide 5' repeat single-stranded/hairpin; target overhangs 5' C and 3' CC
T2 sequence: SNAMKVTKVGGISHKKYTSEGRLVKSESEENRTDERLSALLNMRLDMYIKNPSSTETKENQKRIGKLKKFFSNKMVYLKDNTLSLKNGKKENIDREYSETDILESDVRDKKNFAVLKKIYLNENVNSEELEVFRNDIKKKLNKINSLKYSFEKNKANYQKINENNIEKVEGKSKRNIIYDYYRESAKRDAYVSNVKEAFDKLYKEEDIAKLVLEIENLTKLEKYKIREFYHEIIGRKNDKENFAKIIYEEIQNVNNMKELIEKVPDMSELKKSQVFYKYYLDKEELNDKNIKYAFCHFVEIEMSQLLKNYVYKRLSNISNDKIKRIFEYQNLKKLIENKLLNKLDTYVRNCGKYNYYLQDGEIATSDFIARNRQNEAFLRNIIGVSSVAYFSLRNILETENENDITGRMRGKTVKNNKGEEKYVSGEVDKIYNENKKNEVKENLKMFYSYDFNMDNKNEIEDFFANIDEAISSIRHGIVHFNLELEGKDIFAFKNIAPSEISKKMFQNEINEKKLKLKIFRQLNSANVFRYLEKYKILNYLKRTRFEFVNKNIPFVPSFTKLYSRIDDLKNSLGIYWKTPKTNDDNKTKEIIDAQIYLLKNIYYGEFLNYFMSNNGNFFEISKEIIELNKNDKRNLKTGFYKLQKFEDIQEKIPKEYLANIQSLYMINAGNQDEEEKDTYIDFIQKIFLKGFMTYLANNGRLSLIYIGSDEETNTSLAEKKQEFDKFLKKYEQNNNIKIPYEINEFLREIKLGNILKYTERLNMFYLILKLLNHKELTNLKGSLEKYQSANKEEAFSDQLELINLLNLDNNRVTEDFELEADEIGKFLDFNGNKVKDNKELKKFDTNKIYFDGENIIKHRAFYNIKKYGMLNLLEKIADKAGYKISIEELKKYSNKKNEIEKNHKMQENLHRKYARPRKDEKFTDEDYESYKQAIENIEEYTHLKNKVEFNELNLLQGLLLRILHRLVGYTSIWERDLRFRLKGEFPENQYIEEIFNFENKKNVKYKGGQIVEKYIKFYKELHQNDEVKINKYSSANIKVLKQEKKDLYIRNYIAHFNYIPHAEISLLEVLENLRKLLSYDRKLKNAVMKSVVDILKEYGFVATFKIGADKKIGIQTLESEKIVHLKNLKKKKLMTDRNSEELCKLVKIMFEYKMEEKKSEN

Binder | IC50 of inhibition of the LbuCas13a HEPN nuclease (velocity of reporter RNA cleavage by LbuCas13a–crRNA–aRNA against AIcrVIA concentration) [1] | binding result [2]
B1 | ~7 nM | –
B2 | ~7 nM | –
B3 | – | binds
